Reference: patent US20080267971A1 (published 2008)

T1: human Ang-2443 (human, UniProt O15123 19-496)
T1 construct: Splice variant missing amino acids 96-148; supernatant of transfected 293F cells
T1 sequence: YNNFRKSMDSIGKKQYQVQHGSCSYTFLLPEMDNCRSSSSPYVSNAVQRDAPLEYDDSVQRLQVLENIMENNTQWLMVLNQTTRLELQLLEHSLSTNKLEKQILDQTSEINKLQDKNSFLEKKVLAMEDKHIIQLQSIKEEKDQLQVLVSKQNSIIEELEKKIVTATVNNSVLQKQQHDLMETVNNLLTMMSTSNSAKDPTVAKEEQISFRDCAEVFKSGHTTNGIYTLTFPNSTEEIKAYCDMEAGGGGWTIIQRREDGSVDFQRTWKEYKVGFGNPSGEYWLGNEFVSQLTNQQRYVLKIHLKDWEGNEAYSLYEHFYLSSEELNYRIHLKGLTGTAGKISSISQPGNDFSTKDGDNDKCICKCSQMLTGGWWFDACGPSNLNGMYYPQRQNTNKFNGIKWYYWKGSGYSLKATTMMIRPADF

T2: Human Ang-1/2 BsmI chimeric molecule (human)
T2 chain: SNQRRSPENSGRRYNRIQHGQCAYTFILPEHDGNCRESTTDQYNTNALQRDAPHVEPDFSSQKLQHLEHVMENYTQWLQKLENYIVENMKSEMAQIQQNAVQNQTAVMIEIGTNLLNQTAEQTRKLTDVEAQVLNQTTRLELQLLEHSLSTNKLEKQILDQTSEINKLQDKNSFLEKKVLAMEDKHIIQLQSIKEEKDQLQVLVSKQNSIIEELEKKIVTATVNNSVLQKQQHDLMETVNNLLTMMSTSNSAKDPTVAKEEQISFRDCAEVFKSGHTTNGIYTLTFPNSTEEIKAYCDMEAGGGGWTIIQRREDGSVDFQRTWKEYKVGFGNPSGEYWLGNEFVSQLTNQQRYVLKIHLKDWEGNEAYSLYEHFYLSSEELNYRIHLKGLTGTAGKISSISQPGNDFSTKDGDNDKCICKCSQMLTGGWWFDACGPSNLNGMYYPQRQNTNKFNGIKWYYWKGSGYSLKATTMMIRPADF

T3: human Ang-2 H375Q (human, UniProt O15123 19-496)
T3 sequence: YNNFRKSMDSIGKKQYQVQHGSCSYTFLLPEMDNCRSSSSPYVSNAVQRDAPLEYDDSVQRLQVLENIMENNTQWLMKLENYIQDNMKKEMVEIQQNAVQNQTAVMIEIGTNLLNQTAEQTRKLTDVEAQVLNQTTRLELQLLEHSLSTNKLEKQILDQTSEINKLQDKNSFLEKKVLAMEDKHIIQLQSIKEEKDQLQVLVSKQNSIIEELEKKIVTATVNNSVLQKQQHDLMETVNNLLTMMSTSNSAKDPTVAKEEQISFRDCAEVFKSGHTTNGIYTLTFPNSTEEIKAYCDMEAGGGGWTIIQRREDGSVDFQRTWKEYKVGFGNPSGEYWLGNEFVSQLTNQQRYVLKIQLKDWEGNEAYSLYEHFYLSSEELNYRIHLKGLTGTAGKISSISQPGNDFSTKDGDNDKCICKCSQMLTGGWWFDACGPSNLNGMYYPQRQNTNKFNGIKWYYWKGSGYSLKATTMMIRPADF

T4: human Angiopoietin-2 (human, UniProt O15123 19-496)
T4 construct: Mostly bought recombinant protein (R&D Systems 623-AM/CF, 623-AN; biotinylated BT623) or supernatant of transfected 293F cells; also called Ang-2; rhAng-2
T4 sequence: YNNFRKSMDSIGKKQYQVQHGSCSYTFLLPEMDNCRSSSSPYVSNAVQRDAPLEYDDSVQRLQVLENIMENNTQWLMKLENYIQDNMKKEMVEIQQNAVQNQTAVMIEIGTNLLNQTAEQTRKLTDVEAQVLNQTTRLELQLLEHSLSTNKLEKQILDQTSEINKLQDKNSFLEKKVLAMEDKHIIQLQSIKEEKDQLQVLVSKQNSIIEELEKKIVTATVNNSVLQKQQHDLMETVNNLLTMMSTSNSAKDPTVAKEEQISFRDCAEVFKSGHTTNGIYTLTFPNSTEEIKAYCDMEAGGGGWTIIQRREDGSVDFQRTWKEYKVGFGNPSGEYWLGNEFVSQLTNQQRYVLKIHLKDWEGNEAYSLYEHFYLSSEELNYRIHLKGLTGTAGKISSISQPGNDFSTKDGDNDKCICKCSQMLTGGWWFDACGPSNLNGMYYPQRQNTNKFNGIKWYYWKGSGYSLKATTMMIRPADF

T5: human Angiopoietin-1 (human, UniProt Q15389 20-498, limits assumed)
T5 construct: Bought recombinant protein (R&D Systems 293-AN-025/CF) or supernatant of transfected 293F cells; also called Ang-1; recombinant Ang-1
T5 sequence: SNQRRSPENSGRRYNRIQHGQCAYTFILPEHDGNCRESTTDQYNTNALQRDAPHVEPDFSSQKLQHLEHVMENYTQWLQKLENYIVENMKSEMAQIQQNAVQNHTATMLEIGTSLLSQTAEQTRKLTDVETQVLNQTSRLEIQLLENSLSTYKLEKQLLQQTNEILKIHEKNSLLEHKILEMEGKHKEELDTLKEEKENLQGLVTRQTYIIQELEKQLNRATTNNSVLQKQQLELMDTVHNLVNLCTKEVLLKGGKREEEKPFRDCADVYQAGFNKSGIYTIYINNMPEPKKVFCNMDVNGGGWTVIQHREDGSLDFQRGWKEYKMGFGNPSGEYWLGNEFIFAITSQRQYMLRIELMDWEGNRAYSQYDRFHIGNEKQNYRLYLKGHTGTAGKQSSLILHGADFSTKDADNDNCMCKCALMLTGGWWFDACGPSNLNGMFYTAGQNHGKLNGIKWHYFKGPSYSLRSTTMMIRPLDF

B1: mAb 3.19.3 (antibody, V domains shown)
VH: QVQLVESGGGVVQPGRSLRLSCAASGFTFTNYGMHWGRQAPGKGLEWVAVISHDGNNKYYVDSVKGRFTISRDNSKNTLYLQMNSLRAEDTAVYYCAREGIDFWSGLNWFDPWGQGTLVTVSS
VL: EIVLTQSPGTLSLSPGERATLSCRASQSITGSYLAWYQQKPGQAPRLLICGASSWATGIPDRFSGSGSGTDFTLTISRLEPEDFAVYYCQQYSSSPITFGQGTRLEIKR
notes: Human hybridoma IgG (XenoMouse); also called x3.19
B2: mAb 5.52.1 (antibody, V domains shown)
VH: QVQLVESGGGVVQPGRSLRLSCAASGFTFSSYGMHWVRQAPGKGLEWVAVRWYDESNKYYADSVKGRFTISRDNSKNTLYLQMNSLRAEDTAVYYCARDPFETGTTFDYWGQGTLVTVSS
VL: DIQMTQSPSSVSASVGDRVTITCRASQGISSWLAWYQQKPGKAPKLLIYAVSSLESGVPSRFSGSGSGTDFTLTISSLQPEDFATYYCQQALTFGGGTKVEIKR
notes: Human hybridoma IgG (XenoMouse); the line 5.52 has entries of its own (347, 349; light chain L2) that differ from the clone 5.52.1 (L5); also called x5.52
B3: mAb 5.86.1 (antibody, V domains shown)
VH: QVQLVQSGAEVKKPGASVKVSCKASGYTFTGYHMYWVRQAPGQGLEWLGWINPNSGGTNYAQKFQGRVTMTRDTSISTAYMELSRLRSDDTAVYYCVRDQGIAAAGPFDYWCQGTLVTVSS
VL: DIRMTQSPSSLSASVGDRVTITCRASQRISTYLNWYQQKPGKAPKFLIYAASSLQSGVPSRFSGSGSGTDFTLTISSLQPEDFATYYCQQSYTTPFTFGPGTKVDIKR
notes: Human hybridoma IgG (XenoMouse); also called x5.86
B4: mAb 5.83.1 (antibody, V domains shown)
VH: not shown
VL: EIVMTQSPATLSVSPGERATLSCRASQSLISNLAWYQQKPGQAPRLLIFGASTRATGIPARFSGSGSGTEFTLTISSLQSEDFAVYYCHQYNNWWTFGQGTKVEIKR
notes: Human hybridoma IgG (XenoMouse); also called x5.83
B5: mAb 5.88.3 (antibody, V domains shown)
VH: EVQMVESGGGLVQPGGSLRLSCAASGFTLRSYWMSWVRQAPGKGLEWVANIKEDGSEKYHVDSVKGRFTISRDNAENSLFLQMSSLRAEDTAVYYCARDMEASAGLFDYWGQGTLVTVSS
VL: EIVMTQSPATLSVSPGERAILSCRASQSISSNLAWYQQKPGQAPRLLIYGASTRATGIPARFSGSGSGTEFTLTISSLQSEDFAVYYCQQYNYWWTFGQGTKVEIKR
notes: Human hybridoma IgG (XenoMouse); also called x5.88
B6: mAb 3.31.2 (antibody, V domains shown)
VH: EVQLVESGGGLVQPGGSLRLSCAASGFTFSSYWMSWVRQAPGKGLEWVANIKQDGSDKYYVDSVKGRFTISRDNAKNSLYLRMNSLRAEDTAVFYCARDMGSGWFDYWGQGTLVTVSS
VL: EVVMTQSPATLSVSPGERATLSCRASQSVGSNLAWYQQKPGQAPRLLIYGASTRATGIPARFSGSGSGTEFTLTISSLQSEDFAVYCCQQYNHWWTFGQGTKVEIKR
notes: Human hybridoma IgG (XenoMouse); also called x3.31
B7: mAb 3.3.2 (antibody, V domains shown)
VH: EVQLVESGGGLVQPGGSLRLSCAVSGFTFSSYWMSWVRQAPGKGLEWVANIKQDGSEKYYVDSVKGRFTISRDNAKNSLYLQMNSLRAEDTAVYYCARDQGIAVAGPFDYWGQGTLVTVSS
VL: EIVMTQSPATLSVSPGERATLSCRASQTVSSDLAWYQQKPGQAPRLLIYGASIRATGIPARFSGSGSGTEFTLTISSLQSEDFAVYSCQQYYNWWTFGQGTKVEIKR
notes: Human hybridoma IgG (XenoMouse); also called 3.3.1; x3.3
B8: mAb 5.54.1 (antibody, V domains shown)
VH: not shown
VL: EIVMTQSPATLSVSPGERATLSCRASQSLISNLAWYQQKPGQAPRLLIFGASTRATGIPARFSGSGSGTEFTLTISSLQSEDFAIYYCHQYNNWWTFGQGTKVEIKR
notes: Human hybridoma IgG (XenoMouse); also called x5.54
B9: mAb 5.101.1 (antibody, V domains shown)
VH: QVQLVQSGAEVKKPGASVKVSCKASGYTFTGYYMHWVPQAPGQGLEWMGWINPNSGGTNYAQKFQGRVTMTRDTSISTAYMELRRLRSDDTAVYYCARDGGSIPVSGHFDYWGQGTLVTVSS
VL: EIVMTQSPATLSVSPGERATLSCRASQSLISNLAWYQQKPGQAPRLLIFGASTRATGIPARFSGSGSGTEFTLTISSLQSEDFAVYYCHQYNNWWTFGQGTKVEIKR
notes: Human hybridoma IgG (XenoMouse); also called x5.101

Key:
[1] = target: T1, human Ang-2443; experiment: ELISA
[2] = target: T2, Human Ang-1/2 BsmI chimeric molecule; experiment: ELISA
[3] = target: T3, human Ang-2 H375Q; experiment: ELISA
[4] = target: T4, human Angiopoietin-2; experiment: inhibition of rhAng-2 binding to its receptor; note: test concentration or dose not given here
[5] = target: T5, human Angiopoietin-1; experiment: capture ELISA
Description: The binding of the top 27 human monoclonal antibodies was detected with a HRP-conjugated goat anti-human antibody, followed by colorimetric horseradish peroxidase substrate (Enhanced K-Blue TMB substrate Neogen Corporation). The absorbance of each well of the ELISA plates was measured at 450 nm on a microplate autoreader.

Row | Binder | % of binding to human Ang-2 [1] | % of binding to human Ang-2 [2] | % of binding to human Ang-2 [3] | OD650 in inhibition assay [4] | binding result [5]
1 | B1 | 100% | 100% | 100% | 0.0633 OD650 | –
2 | B2 | 100% | 100% | 100% | 0.0627 OD650 | –
3 | B3 | 100% | 100% | 100% | 0.0419 OD650 | no binding
4 | B4 | 100% | 100% | 100% | 0.0484 OD650 | no binding
5 | B5 | 100% | 100% | 100% | 0.0874 OD650 | no binding
6 | B6 | 100% | 100% | 100% | 0.0516 OD650 | no binding
7 | B7 | 100% | 100% | 100% | 0.0558 OD650 | –
8 | B8 | 100% | 100% | 100% | 0.044 OD650 | no binding
9 | B9 | 100% | 100% | 100% | 0.0824 OD650 | no binding
